Experiments:
[1] = molecular target: RGA5_S (RGA5 982-1116), small C-terminal fragment of RGA5 carrying the HMA domain (rice) (UniProt F7J0N2); test: crystal structure
[2] = molecular target: minimal RGA5HMA construct (RGA5 991-1072) (rice) (UniProt F7J0N2); test: ITC
[3] = molecular target: RGA5_S (RGA5 982-1116), small C-terminal fragment of RGA5 carrying the HMA domain (rice) (UniProt F7J0N2); test: ITC

| Substance | stoichiometry N [1] | Kd [2] [µM] | Kd [3] [µM] |
| --- | --- | --- | --- |
| dSP-AVR1-CO39 (AVR1-CO39 with its signal peptide deleted), wild type, recombinant (natural protein) | 1 | 7.2 | – |
| dSP-AVR-Pia (AVR-Pia with its signal peptide deleted), recombinant (natural protein) | – | – | 1.8 |

Reference: article PMC6233088
